Reference: the nanobody polyreactivity screen of Harvey et al. (2022)

assay: yeast display, Sf9 membrane polyspecificity reagent, FACS + sequencing; frameworks hold sequencing errors
Method in brief: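 Sorting gates, low and high (top ~1%), were placed on anti-HA fluorescence to track expression and on streptavidin fluorescence to track reagent binding. A clone's polyreactivity label is taken from the gate it came out of. The reagent was 10% biotinylated, detergent-solubilized Sf9 membrane, applied for 1 hour at 4 °C to galactose-induced yeast display cells.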

Sequence	polyreactivity (PSR sort gate)
QVQLVESGGGLVQAGGSLRLSCAASGFTFYRYAMGSYRQAPGKERELFAAIRKSGGSTYYADSVKGRFTISRDNAKNTVYLLMNSMKAEDTAVYYCAKRYATDGFGYWGQGTQVTVSS	high polyreactivity
QVQLVESGGGLVQAGGSLRLSCAASGFTFYRYAMGWYRPAPGKERELVAAISSTGDRTYYADSVKGRFTISRDNAKNTVYLQMNSLKPEDTAVYYCAAPYQNQVEFNYWGQGTQVTVSS	high polyreactivity
QVQLVESGGGLVQAGGSLRLSCAASGFTFYRYAMGWYRPAPGKERELVAAITRSGSRTYYADSVKGRFTISRDNAKNTVYLQMNSLKPEDTAVYYCNTDGGDHPTARYGYWGQGTQVTVSS	high polyreactivity
QVQLVESGGGLVQAGGSLRLSCAASGFTFYRYAMGWYRQAPGKERELVAAISRTGGSTYYADSVKGRFTISRDNAKNTVYLQMNSLKPEDTAVYYCAAERKARTSWYGAASRYYYWGQGTQVTVSS	high polyreactivity
QVQLVESGGGLVQAGGSLRLSCAASGFTFYRYTMGWYRQAPGKERELVAAITNTDSTNYADSVKGRFTISRDNAKNTVYLQMNSLKPEDTAVYYCNAAYVWYRIFVRRDYWGQGTQVTVSS	high polyreactivity
QVQLVESGGGLVQAGGSLRLSCAASGFTFYSNAMGWYRQAPGKERELGAAITWSTGNTYYADSVKGRFTISRDNAKNTVYLQMNSLKPEDTAVYYCAARSHTGYYPPSYYWGQATQVTVSS	high polyreactivity
QVQLVESGGGLVQAGGSLRLSCAASGFTFYTNAMGLSRQAPGKERELVAAISQRGASTYYADSVKGRFTISRDNAKNTFYLEMTSLKPEDTAVYYCAASSRTHGSYYYWGQGTQVTVSS	high polyreactivity
QVQLVESGGGLVQAGGSLRLSCAASGFTFYTNAMGWYRQAPGKEREFVAAISWSGTGTYYADSVKGRFTISRDNAKNTVYLQMNSLKPEDTAVYYCAARDRWRGGRKFDYWGQGTQVTVSS	high polyreactivity
QVQLVESGGGLVQAGGSLRLSCAASGFTFYTYAMGWYRQAPGKERELVAAINQRGGRTYYADSVKGRFTISRDNAKNTVYLQMNSLKPEDTAVYYCAKSPPPKTRYDYWGQGTQVTVSS	high polyreactivity
QVQLVESGGGLVQAGGSLRLSCAASGFTFYTYVRGWYRQAPGKERELVAAITSGVSTNYADSVKGRFTISRDNAKNTVYLQMNSLKPEDTAVYYCNKDVRPAYRWYDYWGQDTQVTVSS	low polyreactivity
QVQLVESGGGLVQAGGSLRLSCAASGFTFYWYAMGWYRKAPGKERELVAAISSSGGRTYYADSVKGRFTISRDNAKNTVYLQMNSLKPEDTAVYYCAAAHTREYYWGQGTQVTVSS	high polyreactivity
QVQLVESGGGLVQAGGSLRLSCAASGFTFYWYAMGWYRQAPGKERELVAAITIGGSTYYADSVKGRFTISRDNAKNTVYLQMNSLKPEDTAVYYCNVYGYGTEYDYWGQGTQVTVSS	high polyreactivity
QVQLVESGGGLVQAGGSLRLSCAASGFTFYYNAMGWYRQAPGKERELVAVISSSGSRTYYADSVKGRFTISRYNAKNTVYLQMNSLKPEDTAVYYCAAARIGTRDYWGQGTQVSVSS	high polyreactivity
QVQLVESGGGLVQAGGSLRLSCAASGFTFYYNDMGWYRQAPGKERELVATITNS	low polyreactivity
QVQLVESGGGLVQAGGSLRLSCAASGFTFYYYAMGWYRQAPGKERELVAAINRSGGSTYYADSVKGRFTISRDNAKNTVYLQMNSLKPEDTAVYYCNKRLLVSRSSAQPYGYWGQGTQVTVSS	high polyreactivity
QVQLVESGGGLVQAGGSLRLSCAASGFTFYYYAMGWYRQAPGKERELVATISRSGGSTYYADSVKGRFTISRDNAKNTVYLQMNSLKPEDTAVYYCAARSYKSPRDYDYWGQGTQVTVSS	high polyreactivity
QVQLVESGGGLVQAGGSLRLSCAASGFTFYYYAMGWYRQAPGTERELVASITSTDSTTYADSVKGRFTISRDNAKNTVYLQMNSLKPEDTAVYYFNRLYYHWYGGLDYWGHGTQVTVSS	high polyreactivity
QVQLVESGGGLVQAGGSLRLSCAASGFTFYYYPMGWYRQAPGKERELVAAITWRGGSTNYADSVKGRFTISRDNAKNTVYLLMISLKPEDTAVYYCAAVTYWFWPGMDYWGQGTQVTVSS	low polyreactivity
QVQLVESGGGLVQAGGSLRLSCAASGFTFYYYTMGWYRQAPGKERELVAGISGTGGSTYYADSVKGRFTISRDNAKNTVYLQMNSLKPEDTAVYYCAAGPWYWGQGTQVTVSS	low polyreactivity
QVQLVESGGGLVQAGGSLRLSCAASGFTFYYYTMGWYRQAPGKERELVAVITGGGGSTYYADSVKGRFTISRDNAKNTVYLQMNSLKPEDTAVYYCAAKFYGWYRQRGYDYWGQGTQVTVSS	high polyreactivity
QVQLVESGGGLVQAGGSLRLSCAASGFTFYYYVMGWSRQAPGKERELVAAITRSGGSTYYADSVKGRFTISRDNAKNTVYLQMNSLKPEDTAVYYCNAYVPPKAASAAYDYWGQGTQVTVSS	high polyreactivity
QVQLVESGGGLVQAGGSLRLSCAASGFTIGSNAMGWYRPAPGKEWELVAAISYTCSTYYAESVKGRFTISRDNAKNTVYLQKNSLKPEDTAVYYGNAESDTPSYDDWGQGTQVTVSS	low polyreactivity

Sequence	polyreactivity (PSR sort gate)
QVQLVESGGGLVQAGGSLRLSCAASGFTIHNYAMGWYRQAPGKERELVARITRSGGTTYYADSVKGRFTISRDNAKNTVYLQMNSLKPEDTAVYYCAARRYGYTSITWYDYWGQGTQVTVSS	high polyreactivity
QVQLVESGGGLVQAGGSLRLSCAASGFTILRYAMGWYRQAPGKERDLVAAISTSGGSTSYADSVKGRFTISRDNAKNTVYVQMYSLKPEDSAVYYCKAVLYKAYWQLYDYWGQGSQVTVSS	high polyreactivity
QVQLVESGGGLVQAGGSLRLSCAASGFTIRNYAMGLYRQAPGKERELFAAIRGRGGSTYYADSVKGRFTISRDNAKNTDYLQMNSLKPEDTAVYYCARVGYASYEHDYWGQGTQVNVSS	high polyreactivity
QVQLVESGGGLVQAGGSLRLSCAASGFTISDNAMGWYRQAPGKERELVAAITSGTSTYYADSVKGRFTISRDNAKNTVYLQMNSLKPEDTAVYYCAARTYYSGYLWARGYWGQGTQVTVSS	high polyreactivity
QVQLVESGGGLVQAGGSLRLSCAASGFTISFYAMGWYRQAPGKERELVAAITWNGGNTYYADSVKGRFTISRDNAKNTVYLQMNSLKPEDTAVYYCNKDSYYYHFDYWGQGTQVTVSS	high polyreactivity
QVQLVESGGGLVQAGGSLRLSCAASGFTITYNAMGWYRKAPGKEREFVAAITNNGSTYYADSVKGRFTISRDNAKNTVYLQMNSLKPEDTAVYYCAVDPGYYDEYKYWGQGTQVTVSS	low polyreactivity
QVQLVESGGGLVQAGGSLRLSCAASGFTIVWYAMGWYRQATGKERELVAAISSGVSTYYADSVKGRFTISRDNAKNTVYLQMNSLKPEDTAVYYCAADREYYDEYAGYEYWGQGTQVTVSS	low polyreactivity
QVQLVESGGGLVQAGGSLRLSCAASGFTIWRYAMGWYRQAPWKARELVAAISRGGSTNYADSVKGRFTISRDNAKNTVYLQMNSLKPEDTAVYYCAASVQYRRLKKFYYWGQGTQVTVSS	high polyreactivity
QVQLVESGGGLVQAGGSLRLSCAASGFTIYANAMGWYRQAPGKERELVAAISSNGGSTYYADSVKGRFTISRDNAKNTVYLQMKSLKPEDTAVYSCADYFGSVLRSTIYDYWGQGTQVTVSS	low polyreactivity
QVQLVESGGGLVQAGGSLRLSCAASGFTIYGYAMGWYSQAPGKERELVAAISSSGGRTYYADSVKGRCTISRDNAKNTVYLQMNSLKPEDTAVYYCAAEYRSYRDGYWGQGTQVTVSS	high polyreactivity
QVQLVESGGGLVQAGGSLRLSCAASGFTIYRYAMGWSRQAPGKERELVAAISGGGSRTYYADSVKGRFTISRDNAKNTVYLLMNSLKPEDTAVYYCNADPVKYSYDGYARPRYDYWGQGTQVTVSS	low polyreactivity
QVQLVESGGGLVQAGGSLRLSCAASGFTIYRYAMGWYRQAPGKERELVAAITWSGVSTYYADSVKGRFTISRDNAKNTVYLQMNSLKPEDTAVYYCAATTYSSSSSHDYWGQGTQVTVSS	low polyreactivity
QVQLVESGGGLVQAGGSLRLSCAASGFTIYRYAMGWYRQAPGKERELVASITWSGGSTYYADSVKGRFTISRDNAKNTVYLQMNSLKPEDTAVYYCNALFSWGTGYGSSYGYWGQGTQVTVSS	high polyreactivity
QVQLVESGGGLVQAGGSLRLSCAASGFTIYYYAMGWYRQAPGKERELVASITSGGSTYYADSVKGRFTISRDNAKNTVYLQMHSLKPEDTAVYDCAKTRLHSKEGDYWGQGTQVTVSS	low polyreactivity
QVQLVESGGGLVQAGGSLRLSCAASGFTIYYYAMGWYRQAPGKERELVASITSGGSTYYADSVKGRFTISRDNAKNTVYLQMNSLKPEDTAVYYCAKTRFHSKEGDYWGQGTQVTVSS	low polyreactivity
QVQLVESGGGLVQAGGSLRLSCAASGFTLAGYDMGWYRQAPGKERELVATISTYADSVKGRFTISRDNAKNTVYLQMNSLKPEDTAVYDCAKKYVWTHNYWGQGTQVTVSS	low polyreactivity
QVQLVESGGGLVQAGGSLRLSCAASGFTLARNTMGWYRQAPGKQRELVAAISGGGSTNYADSVKGRFTISRDNAKNTVYLLMYSLKPEHTAVYYCNADSNSDNNDYDYWGQGSQVTVSS	low polyreactivity
QVQLVESGGGLVQAGGSLRLSCAASGFTLDNYAIGWYRPAPGKERELVAASSWSGGRTYYADSVKGRFTISRDNAKNTVYLQMNSLKPEDTAVYYCYASPYGRKYGILADGDYWGQGTQVTVSS	high polyreactivity
QVQLVESGGGLVQAGGSLRLSCAASGFTLDYYAMGLYRQAPGKERELVAAITSGSITYYADSVKGRFTISRDNAKNTVYLQMNSLKPEDTAVYYCAAVGLVRYGYWGQGTQVTVSS	high polyreactivity
QVQLVESGGGLVQAGGSLRLSCAASGFTLFDYAMGWYRQAPGKERELVAAITTSGGSTYYADSVKGRFTISRDNAKNTVYLQMNSLKPEDTAVYYCAVEYMLTYYYYVSYEYYYWGQGTQVTVSS	high polyreactivity
QVQLVESGGGLVQAGGSLRLSCAASGFTLFTYAMGWYRQAPGKERELVAAIRSGGSTYYADSVKGRFTISRDTAKNTVYLQMNSLKPEDTAVYYCNAVYRYASGKYYYWGQGTQVTVSS	high polyreactivity
QVQLVESGGGLVQAGGSLRLSCAASGFTLGFNAMGWYRQAPGKERELVATISSSGGSTHYADSVKGRFTISRDNAKNTVYLQMNSLKPEDTAVYYCARDDSDRIWLEQSGYWGQGTQVTVSS	low polyreactivity
